The target of this experiment is DNA polymerase theta helicase domain (Polθ-hel, residues 1–894) (human), O75417. Put plainly: cryo-EM structure. The conditions noted are these: remark: other sources report otherwise.

The source of these data is PMC11324745.

B1: DNA polymerase theta helicase domain (Polθ-hel, residues 1–894), O75417 1-894 (domain or fragment)
chain: MNLLRRSGKRRRSESGSDSFSGSGGDSSASPQFLSGSVLSPPPGLGRCLKAAAAGECKPTVPDYERDKLLLANWGLPKAVLEKYHSFGVKKMFEWQAECLLLGQVLEGKNLVYSAPTSAGKTLVAELLILKRVLEMRKKALFILPFVSVAKEKKYYLQSLFQEVGIKVDGYMGSTSPSRHFSSLDIAVCTIERANGLINRLIEENKMDLLGMVVVDELHMLGDSHRGYLLELLLTKICYITRKSASCQADLASSLSNAVQIVGMSATLPNLELVASWLNAELYHTDFRPVPLLESVKVGNSIYDSSMKLVREFEPMLQVKGDEDHVVSLCYETICDNHSVLLFCPSKKWCEKLADIIAREFYNLHHQAEGLVKPSECPPVILEQKELLEVMDQLRRLPSGLDSVLQKTVPWGVAFHHAGLTFEERDIIEGAFRQGLIRVLAATSTLSSGVNLPARRVIIRTPIFGGRPLDILTYKQMVGRAGRKGVDTVGESILICKNSEKSKGIALLQGSLKPVRSCLQRREGEEVTGSMIRAILEIIVGGVASTSQDMHTYAACTFLAASMKEGKQGIQRNQESVQLGAIEACVMWLLENEFIQSTEASDGTEGKVYHPTHLGSATLSSSLSPADTLDIFADLQRAMKGFVLENDLHILYLVTPMFEDWTTIDWYRFFCLWEKLPTSMKRVAELVGVEEGFLARCVKGKVVARTERQHRQMAIHKRFFTSLVLLDLISEVPLREINQKYGCNRGQIQSLQQSAAVYAGMITVFSNRLGWHNMELLLSQFQKRLTFGIQRELCDLVRVSLLNAQRARVLYASGFHTVADLARANIVEVEVILKNAVPFKSARKAVDEEEEAVEERRNMRTIWVTGRKGLTEREAAALIVEEARMILQQDLVEM
For the molecule B1, the percent of particles in the dimeric form came out at 95% and the percent of particles in the tetrameric form turned out to be 5%.
